Experimental data published in PMC2173746.

Target: LSm7 (UniProt Q9UK45)
Assay: two-hybrid

Chain of UniProt Q9UK45 (Q9UK45 whole entry): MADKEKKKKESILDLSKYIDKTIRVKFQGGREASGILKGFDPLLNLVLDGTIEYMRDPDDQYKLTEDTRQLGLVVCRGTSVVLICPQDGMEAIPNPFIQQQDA

## SART3/p110 with the CT10 domain deleted (from UniProt Q15020 1-950) (domain or fragment)
  fold reduction of the two-hybrid interaction against full-length SART3/p110: 2 fold
